Experimental data from US20230055408A1 (JIANGSU HENGRUI MEDICINE, published 2023).

T1: human CEACAM1 expressed on CHO cell surface (human, UniProt P13688 35-526)
T1 construct: also called CEACAM1-CHO
T1 sequence: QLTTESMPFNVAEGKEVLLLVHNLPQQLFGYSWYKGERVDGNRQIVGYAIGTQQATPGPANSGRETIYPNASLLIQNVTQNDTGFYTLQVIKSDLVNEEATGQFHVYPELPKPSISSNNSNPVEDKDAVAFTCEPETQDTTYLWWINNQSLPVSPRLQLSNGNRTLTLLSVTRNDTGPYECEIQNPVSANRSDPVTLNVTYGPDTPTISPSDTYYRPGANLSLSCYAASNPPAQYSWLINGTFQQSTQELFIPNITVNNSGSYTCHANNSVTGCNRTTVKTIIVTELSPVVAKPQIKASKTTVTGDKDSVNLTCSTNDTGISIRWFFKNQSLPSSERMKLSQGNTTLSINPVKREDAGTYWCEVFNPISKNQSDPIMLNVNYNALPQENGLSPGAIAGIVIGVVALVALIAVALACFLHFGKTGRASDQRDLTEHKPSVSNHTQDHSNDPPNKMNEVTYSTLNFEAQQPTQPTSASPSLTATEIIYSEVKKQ

T2: monkey CEA expressed on CHO cell surface (cynomolgus monkey)
T2 construct: also called cynoCEA-CHO; monkey CEA proteins on the cell surface
T2 chain: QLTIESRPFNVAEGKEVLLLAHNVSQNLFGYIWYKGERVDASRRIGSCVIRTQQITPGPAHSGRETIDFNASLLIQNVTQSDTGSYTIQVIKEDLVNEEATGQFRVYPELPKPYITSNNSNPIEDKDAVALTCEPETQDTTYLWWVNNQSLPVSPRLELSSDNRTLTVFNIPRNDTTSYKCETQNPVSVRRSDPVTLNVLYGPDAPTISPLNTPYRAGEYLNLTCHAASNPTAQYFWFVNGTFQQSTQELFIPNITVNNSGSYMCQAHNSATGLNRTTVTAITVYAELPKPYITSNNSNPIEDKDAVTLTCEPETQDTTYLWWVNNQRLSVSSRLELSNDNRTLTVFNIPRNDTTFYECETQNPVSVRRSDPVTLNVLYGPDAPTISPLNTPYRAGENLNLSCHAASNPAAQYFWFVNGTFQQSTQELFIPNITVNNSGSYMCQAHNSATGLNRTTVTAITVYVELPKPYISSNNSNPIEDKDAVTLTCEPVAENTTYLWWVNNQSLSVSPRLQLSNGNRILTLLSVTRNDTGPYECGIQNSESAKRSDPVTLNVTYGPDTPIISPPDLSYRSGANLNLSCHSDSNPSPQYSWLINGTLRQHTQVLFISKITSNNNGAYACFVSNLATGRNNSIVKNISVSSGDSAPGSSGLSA

T3: human CEA protein on the cell surface (human, UniProt P06731 35-685)
T3 sequence (looked up): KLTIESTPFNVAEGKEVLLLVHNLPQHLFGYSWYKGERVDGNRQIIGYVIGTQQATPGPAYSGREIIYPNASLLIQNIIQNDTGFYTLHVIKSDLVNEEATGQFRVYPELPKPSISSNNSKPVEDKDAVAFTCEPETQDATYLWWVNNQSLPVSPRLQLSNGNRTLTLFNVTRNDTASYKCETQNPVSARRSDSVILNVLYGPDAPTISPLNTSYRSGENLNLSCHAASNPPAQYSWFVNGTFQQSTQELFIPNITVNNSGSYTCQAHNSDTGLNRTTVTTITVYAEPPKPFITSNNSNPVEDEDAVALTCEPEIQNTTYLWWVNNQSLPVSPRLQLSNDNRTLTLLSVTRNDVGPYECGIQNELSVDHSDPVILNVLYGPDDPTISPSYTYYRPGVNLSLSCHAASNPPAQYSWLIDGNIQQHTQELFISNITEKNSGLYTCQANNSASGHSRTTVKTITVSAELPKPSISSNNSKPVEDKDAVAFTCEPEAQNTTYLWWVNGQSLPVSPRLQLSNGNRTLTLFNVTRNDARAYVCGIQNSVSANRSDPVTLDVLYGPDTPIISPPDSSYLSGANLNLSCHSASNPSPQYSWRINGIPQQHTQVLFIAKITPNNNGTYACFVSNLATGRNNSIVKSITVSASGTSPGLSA

T4: human soluble CEA (human, UniProt P06731 35-685, limits assumed)
T4 construct: also called sCEA
T4 sequence (looked up): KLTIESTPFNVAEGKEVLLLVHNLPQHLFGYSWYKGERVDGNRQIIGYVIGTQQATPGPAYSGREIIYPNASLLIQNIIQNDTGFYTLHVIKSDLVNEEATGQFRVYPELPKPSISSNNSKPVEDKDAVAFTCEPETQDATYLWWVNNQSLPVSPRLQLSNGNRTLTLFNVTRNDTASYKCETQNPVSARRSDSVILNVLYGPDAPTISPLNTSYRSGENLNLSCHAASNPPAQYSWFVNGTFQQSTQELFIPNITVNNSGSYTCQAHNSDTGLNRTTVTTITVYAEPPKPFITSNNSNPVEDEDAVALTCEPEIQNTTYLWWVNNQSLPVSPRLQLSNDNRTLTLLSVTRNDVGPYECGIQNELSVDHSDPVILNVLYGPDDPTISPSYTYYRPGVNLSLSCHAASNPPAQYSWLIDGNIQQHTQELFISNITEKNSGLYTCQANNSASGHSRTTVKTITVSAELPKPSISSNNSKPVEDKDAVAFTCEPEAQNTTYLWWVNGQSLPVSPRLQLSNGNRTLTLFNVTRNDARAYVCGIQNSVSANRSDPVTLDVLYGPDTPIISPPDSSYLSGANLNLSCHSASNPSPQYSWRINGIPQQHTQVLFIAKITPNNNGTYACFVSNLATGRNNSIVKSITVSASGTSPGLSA


Experiments:
[1] = molecular target: T1, human CEACAM1 expressed on CHO cell …; experiment: FACS, CEACAM1-CHO cells
[2] = molecular target: T2, monkey CEA expressed on CHO cell surface; experiment: FACS, cynoCEA-CHO cells
[3] = molecular target: T3, human CEA protein on the cell surface; experiment: cell-based or functional assay
[4] = molecular target: T3, human CEA protein on the cell surface; experiment: FACS, MKN45 cells
human soluble CEA = molecular target: T4, human soluble CEA; experiment: SPR (Biacore T200), antibody captured, soluble CEA as analyte, 1:1 Langmuir
Method: The affinity of a test humanized antibody for human and monkey soluble CEA was determined using a Biacore (GE, T200) instrument. According to the method in the instructions of a human antibody capture kit (GE, Cat #BR-1008-39), the human antibody capture antibody was covalently conjugated to a biosensor chip CM5 (GE, Cat #BR-1005-30) of the Biacore instrument to affinity-capture a certain amount of the test antibody, then a series of concentration gradients of soluble CEA antigens were allow to flow through the surface of the chip, and reaction signals were detected in real time using Biacore, so that an association and dissociation curve was obtained. After each cycle of dissociation was completed, the biochip was washed and regenerated with a regeneration solution prepared in the human antibody capture kit. The data obtained from the experiment were fitted with the (1:1) Langmuir model using BIAevaluation version 4.1 software to obtain affinity values.

| Binder | binding result [1] | EC50 [2] | IC50 of inhibition of cell proliferation, LS174T (with moderate CEA expression) [3] | IC50 of inhibition of cell proliferation, MKN45 (with high CEA expression) [3] | EC50 [4] | Kd (human soluble CEA) |
| --- | --- | --- | --- | --- | --- | --- |
| antibody in SAR-408701 (antibody, human IgG1, kappa, V domains shown, Positive control antibody; also called Sanofi) VH: EVQLQESGPGLVKPGGSLSLSCAASGFVFSSYDMSWVRQTPERGLEWVAYISSGGGITYAPSTVKGRFTVSRDNAKNTLYLQMNSLTSEDTAVYYCAAHYFGSSGPFAYWGQGTLVTVSS VL: DIQMTQSPASLSASVGDRVTITCRASENIFSYLAWYQQKPGKSPKLLVYNTRTLAEGVPSRFSGSGSGTDFSLTISSLQPEDFATYYCQHHYGTPFTFGSGTKLEIKR | no binding | 17.3 nM |  |  |  |  |
| Hu103-32-2-A (DAR 6.94) (antibody, human IgG1, lambda, V domains shown, see heavy chain; linker-toxin 2-A coupled to cysteine thiols of the TCEP-reduced antibody; mean DAR 6.94 per antibody) VH: EVQLVQSGSELKKPGASVKVSCKASGYTFTTYGVIWVRQAPGQGLEWMGWINTYSGVPTYASDFKGRFVFSLDTSVSTAYLQISSLKAEDTAVYYCARKKTLTTVTPWFAYWGQGTLVTVSS VL: ELVLTQSPSASASLGASVKLTCTLSSQHSTYTIEWYQQQPEKGPRYVMELKKDGSHSTGEGIPDRFSGSSSGAERYLTISSLQSEDEADYYCGVGNTIKEQFVYVFGGGTKLTVLG |  |  | 2.37 nM | 3 nM |  |  |
| Hu103-32-2-A (DAR 4.8) (antibody, human IgG1, lambda, V domains shown, see heavy chain; linker-toxin 2-A coupled to cysteine thiols of the TCEP-reduced antibody; mean DAR 4.8 per antibody) VH: EVQLVQSGSELKKPGASVKVSCKASGYTFTTYGVIWVRQAPGQGLEWMGWINTYSGVPTYASDFKGRFVFSLDTSVSTAYLQISSLKAEDTAVYYCARKKTLTTVTPWFAYWGQGTLVTVSS VL: ELVLTQSPSASASLGASVKLTCTLSSQHSTYTIEWYQQQPEKGPRYVMELKKDGSHSTGEGIPDRFSGSSSGAERYLTISSLQSEDEADYYCGVGNTIKEQFVYVFGGGTKLTVLG |  |  | 3.08 nM | 2.86 nM |  |  |
| Hu103-32 (antibody, human IgG1, lambda, V domains shown, Humanized IgG1/lambda; h103VH4 + h103VL8) VH: EVQLVQSGSELKKPGASVKVSCKASGYTFTTYGVIWVRQAPGQGLEWMGWINTYSGVPTYASDFKGRFVFSLDTSVSTAYLQISSLKAEDTAVYYCARKKTLTTVTPWFAYWGQGTLVTVSS VL: ELVLTQSPSASASLGASVKLTCTLSSQHSTYTIEWYQQQPEKGPRYVMELKKDGSHSTGEGIPDRFSGSSSGAERYLTISSLQSEDEADYYCGVGNTIKEQFVYVFGGGTKLTVLG | no binding |  |  |  | 1.79 nM | 31.1 nM |
| Hu67-14-2-A (DAR 6.41) (antibody, human IgG1, kappa, V domains shown, see heavy chain; linker-toxin 2-A coupled to cysteine thiols of the TCEP-reduced antibody; mean DAR 6.41 per antibody) VH: EVQLVQSGAEVKKPGESLKISCKGSGYSFTDYHMNWVKQMPGKGLEWMGDINPDIGGTSYNQNFKGKVTISVDKSISTAYLQWSSLKASDTAMYYCARWDFDSFANWGQGTLVTVSS VL: DIQMTQSPSSLSASVGDRVTITCRASESVSIIGTNLIHWYQQKPGKAPKLLIYHASNLETGVPSRFSGSGSGTDFTLTISSLQPEDFATYYCLQSRKIPYTFGGGTKVEIKR |  |  | 9.24 nM | 3.33 nM |  |  |
| Hu67-14-2-A (DAR 4.28) (antibody, human IgG1, kappa, V domains shown, see heavy chain; linker-toxin 2-A coupled to cysteine thiols of the TCEP-reduced antibody; mean DAR 4.28 per antibody) VH: EVQLVQSGAEVKKPGESLKISCKGSGYSFTDYHMNWVKQMPGKGLEWMGDINPDIGGTSYNQNFKGKVTISVDKSISTAYLQWSSLKASDTAMYYCARWDFDSFANWGQGTLVTVSS VL: DIQMTQSPSSLSASVGDRVTITCRASESVSIIGTNLIHWYQQKPGKAPKLLIYHASNLETGVPSRFSGSGSGTDFTLTISSLQPEDFATYYCLQSRKIPYTFGGGTKVEIKR |  |  | 15.6 nM | 9.39 nM |  |  |
| Hu67-14 (antibody, human IgG1, kappa, V domains shown, Humanized IgG1/kappa; h67VH3 + h67VL4) VH: EVQLVQSGAEVKKPGESLKISCKGSGYSFTDYHMNWVKQMPGKGLEWMGDINPDIGGTSYNQNFKGKVTISVDKSISTAYLQWSSLKASDTAMYYCARWDFDSFANWGQGTLVTVSS VL: DIQMTQSPSSLSASVGDRVTITCRASESVSIIGTNLIHWYQQKPGKAPKLLIYHASNLETGVPSRFSGSGSGTDFTLTISSLQPEDFATYYCLQSRKIPYTFGGGTKVEIKR | no binding | 2.89 nM |  |  |  | 228 nM |
| Hu47-14-2-A (DAR 6.6) (antibody, human IgG1, kappa, V domains shown, see heavy chain; linker-toxin 2-A coupled to cysteine thiols of the TCEP-reduced antibody; mean DAR 6.6 per antibody) VH: EVQLVQSGSELKKPGASVKVSCKASGYTFTTYGMSWVKQAPGQGLKWMGWINTYSGVPTYASDFKGRFVFSLDTSVSTAYLQISSLKAEDTAVYYCARRGNYGRWDFDVWGQGTTVTVSS VL: EIVLTQSPDFQSVTPKEKVTITCSVSSTISSSNLHWYQQKPDQSPKPLIYGTSNLASGVPSRFSGSGSGTDYTLTINSLEAEDAATYYCQQWSIYPLTFGQGTKLEIKR |  |  | 10.3 nM | 6.58 nM |  |  |
| Hu63-13-2-A (DAR 3.97) (antibody, human IgG1, kappa, V domains shown, see heavy chain; linker-toxin 2-A coupled to cysteine thiols of the TCEP-reduced antibody; mean DAR 3.97 per antibody) VH: EVQLVQSGAEVKKPGASVKVSCKASGYTFTDFYMNWVRQAPGQGLEWMGDIFPKSGNTDYNRKFKDRVTMTRDTSTSTVYMELSSLRSEDTAVYYCARSGYGNYVFDYWGQGTLVTVSS VL: DIQMTQSPSSLSASVGDRVTITCRTSQDINIYLNWYQQKPGKAPKLLIYYRSGLLSGVPSRFSGSGSGTDFTLTISSLQPEDFATYYCQQGNTLPPTFGGGTKVEIKR |  |  | 19.8 nM | 34 nM |  |  |
| Hu63-13-2-A (DAR 6.29) (antibody, human IgG1, kappa, V domains shown, see heavy chain; linker-toxin 2-A coupled to cysteine thiols of the TCEP-reduced antibody; mean DAR 6.29 per antibody) VH: EVQLVQSGAEVKKPGASVKVSCKASGYTFTDFYMNWVRQAPGQGLEWMGDIFPKSGNTDYNRKFKDRVTMTRDTSTSTVYMELSSLRSEDTAVYYCARSGYGNYVFDYWGQGTLVTVSS VL: DIQMTQSPSSLSASVGDRVTITCRTSQDINIYLNWYQQKPGKAPKLLIYYRSGLLSGVPSRFSGSGSGTDFTLTISSLQPEDFATYYCQQGNTLPPTFGGGTKVEIKR |  |  | 13.1 nM | 3.93 nM |  |  |
| Hu63-13 (antibody, human IgG1, kappa, V domains shown, Humanized IgG1/kappa; h63VH5 + h63VL1) VH: EVQLVQSGAEVKKPGASVKVSCKASGYTFTDFYMNWVRQAPGQGLEWMGDIFPKSGNTDYNRKFKDRVTMTRDTSTSTVYMELSSLRSEDTAVYYCARSGYGNYVFDYWGQGTLVTVSS VL: DIQMTQSPSSLSASVGDRVTITCRTSQDINIYLNWYQQKPGKAPKLLIYYRSGLLSGVPSRFSGSGSGTDFTLTISSLQPEDFATYYCQQGNTLPPTFGGGTKVEIKR | no binding | 1.71 nM |  |  | 2.93 nM | 144 nM |
